Test results as given in patent US20210253725A1 (BIONTECH, published 2021).

Tests used:
[1] = biological target: T1, CD134 expressed on the cell surface of HT1080_OX40 cells (human, UniProt P43489 29-277); test: cell-based or functional assay
T1 sequence (looked up): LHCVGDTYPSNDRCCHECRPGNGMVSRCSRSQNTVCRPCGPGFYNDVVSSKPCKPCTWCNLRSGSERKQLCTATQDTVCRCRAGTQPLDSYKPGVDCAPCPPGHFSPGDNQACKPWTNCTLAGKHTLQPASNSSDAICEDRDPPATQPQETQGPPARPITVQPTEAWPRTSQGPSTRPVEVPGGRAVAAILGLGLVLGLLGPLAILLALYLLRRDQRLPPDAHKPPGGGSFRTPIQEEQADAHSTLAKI

[2] = biological target: T1, CD134 expressed on the cell surface of …; test: HT1080_OX40 cells, imaging
[3] = biological target: T2, CD134 protein (His-tagged, Sino Biological Inc. 10481-H08H) (human, UniProt P43489 29-216); test: ELISA, coated His-tagged CD134
T2 construct: bought protein coated on ELISA plates; also called OX40; TNFRSF4; not shown: His tag
T2 sequence (looked up): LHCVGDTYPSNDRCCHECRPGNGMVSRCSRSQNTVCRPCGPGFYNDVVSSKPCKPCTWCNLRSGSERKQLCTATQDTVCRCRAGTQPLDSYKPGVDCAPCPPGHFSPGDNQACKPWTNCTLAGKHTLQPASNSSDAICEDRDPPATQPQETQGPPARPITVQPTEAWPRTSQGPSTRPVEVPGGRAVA
Further: test concentration or dose not given here.

Functional assay Cross-linked by F(ab′)2 fragment IL-8 [1]	Functional assay IL-8 [1]	Cellular binding assay [RFU] [2]	ELISA [abs. corr.] [3]	Binder
1.63 abs. corr.	0.355 abs. corr.	497 RFU	2.59 abs. corr.	P018.S.12.A.E02 (antibody, V domains shown, V regions on human Ig constant parts; also called AB134_73) VH: QSVEESGGRLVTPGTPLTLTCTASGFTLSSYYMGWVRQAPGKGLEWIGIIYPSGSAYYATWTKGRFTISRTSTTVDLKVTGPTTEDTATYFCARSTTSSLYYGYNLWGQGTLVTVSS VL: DIVMTQTPASVEAAVGGTVTIKCQASASITNWLAWYQQKPGQPPKLLIYKASTLESGVPSRFKGSGSGTEFTLTISDLESADAASYYCQSNYGGGSDTSHTFGGGTGVVVK
1.53 abs. corr.	0.267 abs. corr.	503 RFU	2.86 abs. corr.	P018.S.12.A.A05 (antibody, V domains shown, V regions on human Ig constant parts; also called AB134_54) VH: QSLEESGGRLVTPGTPLTLTCTASGFSLSNYYINWVRQAPGKGLEWIGIIDKSGSAYYASWARGRFTISKTSTTVGLKIPSPTTEDTATYFCARGYGGYADHGLGLWGQGTLVTVSS VL: DVVMTQTPASVSEPVGGTVTIKCQASQSIAGWLAWYQQKPGQPPKLLIYQASKLASGVPSRFSGSGSGTEYTLTISDLESDDAATYYCQCTYGSASGSNGFGGGTEVVVK
1.58 abs. corr.	-0.114 abs. corr.	0 RFU	0.002 abs. corr.	P018.S.13.A.G06 (antibody, V domains shown, V regions on human Ig constant parts; also called AB134_92) VH: QSLEESGGGLVKPGASLTLTCKASGFDLSSYYYMCWVRQAPGKGLEWIGCFYTDDSANTWYATWAKGRFTISKTSSTTVTLQMTSLTAADTATYFCARDASGWYWFNLWGPGTLVTVSS VL: AQVLTQTPSPVSAAVGGTVTISCQSSQSLHDDNALAWYQQKPGQPPKLLIYLASYLASGVPSRFKGSGSGTQFTLTISEVQSDDAATYYCQGAYSGDNNSFGGGTEVVVK
1.57 abs. corr.	0.145 abs. corr.	502 RFU	1.58 abs. corr.	P018.S.12.A.A02 (antibody, V domains shown, V regions on human Ig constant parts; also called AB134_51) VH: QSLEESGGRLVTPGTPLTLTCTASGFSLSTYYMTWVRQAPGKGLEWIGDIYVRGGARYANWAKGRFTISRTSTTVDLRITSPTTEDTATYFCAREGLSLWGQGTLVTVSS VL: AQVLTQTASPVSAAVGGTVTINCQSSQSVYKNNRLAWYQQKPGQPPKLLIYETSKLESGVSSRFKGSGSGTQFTLTISGVQSDDAATYYCLGGYDCGSADCNAFGGGTEVVVK
1.4 abs. corr.	-0.007 abs. corr.	514 RFU	1.99 abs. corr.	P018.S.12.A.A04 (antibody, V domains shown, V regions on human Ig constant parts; also called AB134_53) VH: QSVEESGGRLVTPGTPLTLTCTVSGIDLSSYAMSWVRQAPGKGLEYIGIISGSGNTYYASWAKGRFTISKTSTTVDLKISSPTTEDTATYFCCRGDPSYSIDGFDPWGPGTLVTVSS VL: AAVLTQTPSPVSAAVGGTVTINCQSSQSVYNNNDLAWYQQKPGQPPKLLIYRASNLASGVPSRFSGSGSGTQFTLTISGVQSGDAATYYCLGAWDDDADTWAFGGGTEVVVE

The remaining lines, values behind:

Binder	Functional assay Cross-linked by F(ab′)2 fragment IL-8 [1]	Functional assay IL-8 [1]	Cellular binding assay [RFU] [2]	ELISA [abs. corr.] [3]
P018.S.12.A.C05 (antibody, V domains shown, V regions on human Ig constant parts; also called AB134_65) VH: QSLEESGGRLVTPGTPLTLTCTASGFSLSNYYMNWVRQAPGKGLEWIGIIDKSGSAYYASWARGRFTISKTSTTVGLKIPSPTTEDTATYFCARGYGGYADHGLGLWGQGTLVTVSS VL: DVVMTQTPASVSEPVGGTVTIKCQASQSIAGWLAWYQQKPGQPPKLLIYQASKLASGVPSRFSGSGSGTEYTLTISDLESDDAATYYCQCTYGSGSGSNGFGGGTEVVVK	1.65 abs. corr.	0.228 abs. corr.	494 RFU	2.94 abs. corr.
P018.S.11.A.E05 (antibody, V domains shown, V regions on human Ig constant parts; also called AB134_36) VH: QSLEESGGRLVTPGTPLTLNCTASGFSLSAYWMGWVRQAPGKGLEWIGIIYATGSTYYTTWAKGRFTISRTSTTVDLKMTSPTTEDTATYFCGRGDGYESLNLWGPGTLVTVSS VL: AQVLTQTPSSVSAAVGGTVTINCQSSQSVYSNNLLSWYQQKPGQPPKRLIYGASTLDSGVSSRFKGSGSGTQFTLTISGMQSDDAATYYCLGYYSGGIYVFGGGTEVVVK	1.42 abs. corr.	-0.265 abs. corr.	407 RFU	1.66 abs. corr.
P018.S.11.A.B04 (antibody, V domains shown, V regions on human Ig constant parts; also called AB134_25) VH: QEQLEESGGDLVKPEGSLTLTCTASGFSFSSAYYMCWVRQAPGKGLEWIACIDAGSSGSTYYASWAKGRFTISKTSSTTVTLQMTSLTAADTATYFCARDGGSTTGYGWLDLWGQGTLVTVSS VL: AVVMTQTASPVSAAVGGTVTINCQASQSIGTNYLSWYQQKPGQPPKLLIYEASNLETGVPSRFKGSGSGTEYSLTISDLESADAATYYCLYSYYSSSSAYTFGGGTEVVVK	1.66 abs. corr.	-0.087 abs. corr.	444 RFU	1.43 abs. corr.
P018.S.11.A.H04 (antibody, V domains shown, V regions on human Ig constant parts; also called AB134_47) VH: QEQLEESGGDLVKPGASLTLTCTASGLSFSGSYWICWVRQAPGKGLEWIGCITAGISGSTYYASWAKGRFTISKTSSTTVTLQMTSLTAADTATYFCARERTGGWGDFNLWGPGTLVTVSS VL: DVVMTQTPASVEAAVGGTVTIKCQASQSITTYLSWYQQKPGQPPKLLIYLASTLESGVPSRFKGSRSGTEYTLTISDLESADAATYYCQCTDGGINHWFWAFGGGTEVVVK	1.61 abs. corr.	0.61 abs. corr.	382 RFU	2.65 abs. corr.
P018.S.11.A.F02 (antibody, V domains shown, V regions on human Ig constant parts; also called AB134_38) VH: QSVEESGGRLVTPGTPLTLTCTASGFSLSNYNMGWVRQAPGEGLEWIGHISTDGSAYYASWAKGRFTISKTSTTVDLKITSPTTEDTGTYFCARLYYRHGYALNLWGQGTLVTVSS VL: DIVMTQTPASVSEPVGGTVTIKCQASQSVGSYLAWYQQKSGQPPKLLIYSASTLASGVPSRFKGSGSGTEFTLTISDLVSADAATYYCHCTYGSNITANWGTFGGGTGVVVK	1.38 abs. corr.	-0.011 abs. corr.	503 RFU	2.43 abs. corr.
P018.S.04.A.E01 (antibody, V domains shown, V regions on human Ig constant parts; also called AB134_10) VH: QSVEESGGRLVTPGTPLTLTCTASGFSLSSSWMSWVRQAPGKGLEFIGFINTGGRAFYATWASGRFTISRTSTKVDLEITSPTSEDTATYFCVRGAAGYPEYDDGDLWGQGTLVTVSS VL: AQVLTQTLSPVSAAVGGTVTINCQSSPSVYHNNWLSWFQKKPGQPPKLLIYEASKLASGVPPRFSGSGSGTQFTLTISGVQSDDAATYYCAGSFSDNIYTFGGGTAMVVK	1.41 abs. corr.	0.084 abs. corr.	22 RFU	2.88 abs. corr.
